Reference: PMC11928522

What was measured:
[1] = target: T1, LPA66-BFP;MBP-GFP-MORF8 (diffuse) (Arabidopsis thaliana;Arabidopsis …, UniProt Q9FI80;Q9LKA5 35-515;1-395, |); experiment: EMSA
T1 sequence 1: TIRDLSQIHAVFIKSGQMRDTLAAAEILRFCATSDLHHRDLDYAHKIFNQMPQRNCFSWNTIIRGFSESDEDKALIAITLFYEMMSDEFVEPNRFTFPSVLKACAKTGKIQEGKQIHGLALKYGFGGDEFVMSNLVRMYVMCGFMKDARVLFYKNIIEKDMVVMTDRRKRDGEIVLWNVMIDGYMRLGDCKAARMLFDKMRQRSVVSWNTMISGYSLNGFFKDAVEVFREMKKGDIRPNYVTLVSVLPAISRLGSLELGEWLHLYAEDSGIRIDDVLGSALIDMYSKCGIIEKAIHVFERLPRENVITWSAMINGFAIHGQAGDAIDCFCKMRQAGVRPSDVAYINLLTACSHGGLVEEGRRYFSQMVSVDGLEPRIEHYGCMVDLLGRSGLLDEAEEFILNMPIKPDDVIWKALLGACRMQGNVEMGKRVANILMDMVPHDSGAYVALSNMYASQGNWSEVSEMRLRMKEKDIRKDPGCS
T1 sequence 2: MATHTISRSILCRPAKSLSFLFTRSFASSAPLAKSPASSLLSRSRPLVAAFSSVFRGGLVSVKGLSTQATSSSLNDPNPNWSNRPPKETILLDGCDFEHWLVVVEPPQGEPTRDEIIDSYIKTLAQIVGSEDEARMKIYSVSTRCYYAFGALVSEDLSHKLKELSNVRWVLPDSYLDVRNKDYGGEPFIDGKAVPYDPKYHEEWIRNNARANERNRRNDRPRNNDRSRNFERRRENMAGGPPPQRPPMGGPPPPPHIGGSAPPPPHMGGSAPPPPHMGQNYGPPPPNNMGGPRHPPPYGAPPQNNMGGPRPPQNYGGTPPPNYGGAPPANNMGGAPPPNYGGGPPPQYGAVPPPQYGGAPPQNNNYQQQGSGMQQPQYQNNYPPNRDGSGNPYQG

LPA66-BFP = target: T2, LPA66-BFP (Arabidopsis thaliana, UniProt Q9FI80 35-515); experiment: EMSA after sedimentation
T2 sequence: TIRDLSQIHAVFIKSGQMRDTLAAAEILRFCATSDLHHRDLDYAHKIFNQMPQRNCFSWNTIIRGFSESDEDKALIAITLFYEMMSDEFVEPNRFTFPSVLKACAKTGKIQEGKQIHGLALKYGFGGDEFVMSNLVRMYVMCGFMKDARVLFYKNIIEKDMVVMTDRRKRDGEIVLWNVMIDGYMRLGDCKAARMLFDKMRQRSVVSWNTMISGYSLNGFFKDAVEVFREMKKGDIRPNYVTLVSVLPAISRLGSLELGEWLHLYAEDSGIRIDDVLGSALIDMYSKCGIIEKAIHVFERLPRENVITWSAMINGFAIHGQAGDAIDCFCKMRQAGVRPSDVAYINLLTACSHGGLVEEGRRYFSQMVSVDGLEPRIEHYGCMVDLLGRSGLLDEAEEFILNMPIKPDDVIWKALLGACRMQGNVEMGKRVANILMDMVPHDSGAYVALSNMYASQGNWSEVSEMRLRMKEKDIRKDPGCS

GFP-MORF8 (condensates) = target: T3, GFP-MORF8 (condensates) (Arabidopsis thaliana, UniProt Q9LKA5 1-395); experiment: condensate partitioning
T3 sequence: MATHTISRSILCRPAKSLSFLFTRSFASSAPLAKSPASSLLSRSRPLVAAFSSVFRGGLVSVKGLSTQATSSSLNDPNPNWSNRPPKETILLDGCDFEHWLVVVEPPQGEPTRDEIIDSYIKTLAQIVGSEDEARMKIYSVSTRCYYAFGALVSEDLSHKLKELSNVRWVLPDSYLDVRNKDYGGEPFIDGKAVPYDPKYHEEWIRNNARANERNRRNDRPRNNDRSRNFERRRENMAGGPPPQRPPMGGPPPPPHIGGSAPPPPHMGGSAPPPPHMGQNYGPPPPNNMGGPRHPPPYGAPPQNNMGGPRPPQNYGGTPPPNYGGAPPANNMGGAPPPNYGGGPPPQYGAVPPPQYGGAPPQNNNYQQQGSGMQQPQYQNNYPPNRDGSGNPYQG

Measured: binding result

UAGCUGUACCUACCGUUUCUUUU (ssRNA) [psbF RNA probe]
binds: all assays above
